Experimental data reported in PMC9817077, “Simple, Reliable Protocol for High-Yield Solubilization of Seedless Amyloid-β Monomer” (ACS Chemical Neuroscience, 2022).

Tests used:
Assay type in all cases: physicochemical
[1] = Negative-stain electron microscopy (NS-EM); conditions: 4 μM
Description: To perform a further test for the presence of seeds, and determine whether the detected oligomers affected the self-assembly kinetics, Aβ(1-42) samples were purified by SEC, and their self-assembly kinetics were compared to those of unpurified samples. In summary, following the protocol used by Hellstrand et al.,[39] […] The fraction eluting from 13.6 to 14.6 min (at 1 mL/min) was collected on ice, diluted variably (60, 80, or 100%, i.e., undiluted) in the elution buffer to give a range of concentrations, supplemented with ThT from a concentrated stock, and used in ThT assays. This purification procedure was repeated several times with reproducible results, and a representative elugram is shown in Figure 6a. The UV absorbance and RI elugrams are very similar to those previously reported for in-house recombinant peptide purified according to the same protocol,[39] and the peak at ∼14 min has already been identified as the monomer. […]
The resulting sample was deposited on grids immediately, or after incubation for 1 h in a 96-well plate treated with a PEG-like low-binding surface (Corning 3881, NY), at 37 °C. […] Micrographs were recorded with a 1024 × 1024 px Gatan CCD camera, and images were analyzed using FIJI.[100],[101]

[2] = LC–MS check for chemical modification at high pH; conditions: 50 mM NaOH
[3] = AF4-MALS fractionation of re-solubilized samples
Description: Samples were analyzed using an AF4 frit inlet (FI) channel equilibrated in 1 mM NaOH, with a 250 μm spacer and a 1 kDa PES membrane, and in-line UV (280 nm; Shimadzu, U.K.), MALS, and RI detectors. Except where otherwise stated, the channel, associated pumps, autosampler, and detectors were purchased or loaned from Postnova Analytics (Landsberg am Lech, Germany). The RI detector was purged following equilibration, and the UV and RI detectors were then zeroed. […] The sample was separated in a 1 mM NaOH mobile phase, with 0.2 mL/min TIP and detector flow; the focus and cross-flow rates were also matched to one another and varied throughout the run.
Data processing and estimation of sample concentration, molecular weight, and recovery were carried out in the AF2000 Control software (Postnova Analytics, Landsberg am Lech, Germany), with additional data processing in GraphPad Prism version 8.3.0. […] We note that, although there is an isosbestic point nearby at 276 nm, the relatively rapid decrease in tyrosine absorbance and increase in tyrosinate absorbance to the right of this point mean that deprotonation still has a significant effect on the extinction coefficient at 280 nm. […] As a result, the tyrosine/tyrosinate extinction coefficient is more appropriate for analysis of the monomer and oligomer fractions in our AF4-MALS runs. Molecular weight values were calculated by fitting models to the UV280 and MALS signals. The molecular weights in Figure 2e were obtained using a fourth-degree Berry fit from 2.0 to 7.0 min, a linear Zimm fit from 7.0 to 12.5 min, and a third-degree Berry fit from 28.0 to 50.0 min. The molecular weights in Figure 3c were obtained using a linear Zimm fit. […] This summation tends toward an exact integral as Δt → 0, and the experimental parameter of Δt = 0.12 min was sufficiently small for the approximation to be reasonably accurate. The probability density function p(M), which gives the probability density of species with mass M, can be calculated as p(M) = dP(Mw ≤ M)/dM. However, when presenting the data on a logarithmic axis, peaks in the probability density function are horizontally stretched at low M and horizontally compressed at high M, meaning that the peak area is no longer proportional to the mass of material.

[4] = 50 mM NaOH, 20 μg injected, mean ± SD
[5] = 50 mM NaOH, geometric average Mw elugram, ROI 3.3–20.0 min
[6] = 5 min sonication in 50 mM NaOH (pH ≈ 12.5), 20 μg injected, 1 mM NaOH mobile phase, UV280, mean ± SD, n = 12
[7] = re-solubilized in 10 mM NaOH without HFIP, 20 μg injected, 1 mM NaOH mobile phase, UV280, mean ± SD

Aβ(1-42): Ultrapure recombinant Aβ(1-42) purchased from rPeptide, lyophilized from HFIP; disordered amyloid-forming peptide
fibrillar species by NS-EM immediately after dilution ([1]; 50 mM NaOH sample diluted into pre-adjusted fibrillization buffer pH 8): did not reveal any fibrillar species
fibrillar species by NS-EM after incubation ([1]; ∼1 h under fibrillization conditions, 37 °C, early growth phase): fibrils were observed
difference between mass spectra of samples sonicated for 5 and 30 min [2]: no obvious difference
material eluting in peak 2 ([3]; 10 mM NaOH preparations with higher pH (≳10.0) after re-solubilization, 20 μg injected, mean ± SD): 18.30 ± 1.17 µg
material eluting in peak 2 ([3]; 10 mM NaOH preparations with more neutral pH (≲8.0) after re-solubilization, 20 μg injected, mean ± SD): 7.62 ± 2.20 µg
recovery in peak 1 ([3]; 10 mM NaOH preparations, more neutral samples (≲8.0), 20 μg injected, mean ± SD): 6.32 ± 6.62 µg
fraction of sample eluting in peak 3 ([3]; 10 mM NaOH, relative to injected mass of 20 μg, ± SD): ~11 ± 5%
recovery from the first two regions of interest (1.5–30.0 min) [3, 4]: 19.90 ± 0.99 µg
total recovery across all three regions of interest [3, 4]: 20.62 ± 1.19 µg
sample eluting in fractions suggestive of dimer or larger [3, 5]: 12%
sample eluting in fractions with Mw closer to the monomer [3, 5]: 88%
Mw of eluting material from 4.0 to 5.0 min ([3]; 50 mM NaOH, geometric mean of 10 concordant Mw elugrams, linear Zimm fit): ~4500 Da
major peak of the molecular weight distribution ([3]; 50 mM NaOH, sample eluting 3.3–20.0 min, from average elugram and UV280): ~4500 Da
material eluting in the peak 1 region (1.5–3.3 min) [3, 6]: 0.31 ± 0.17 µg
material eluting in the peak 2 region (3.3–30.0 min) [3, 6]: 19.59 ± 0.90 µg
material eluting in the peak 3 region (>30 min), nominal [3, 6]: 0.72 ± 0.32 µg
material eluting in peak 1 (1.5–3.3 min) [3, 7]: 3.99 ± 5.92 µg
material eluting in peak 2 (3.3–30.0 min), monomer and small oligomer [3, 7]: 11.73 ± 5.70 µg
material eluting in peak 3 (30.0–60.0 min) [3, 7]: 2.11 ± 0.95 µg
total material eluted in the AF4 run ([3]; re-solubilized in 10 mM NaOH, 20 μg injected, mean ± SD): 17.82 ± 6.68 µg
